# Experimental data: article PMC4079599, “Mixed Disulfide Formation at Cys141 Leads to Apparent Unidirectional Attenuation of Aspergillus niger NADP-Glutamate Dehydrogenase Activity” (PLoS ONE, 2014)
# T1: AnGDH (NADP-glutamate dehydrogenase from Aspergillus niger, recombinant) (Aspergillus niger, UniProt B6V7E4)
# T1 construct: full-length cDNA in pET43.1(b) NdeI/HindIII, E. coli BL21(DE3), without a tag, purified
# T1 sequence (B6V7E4 1-460): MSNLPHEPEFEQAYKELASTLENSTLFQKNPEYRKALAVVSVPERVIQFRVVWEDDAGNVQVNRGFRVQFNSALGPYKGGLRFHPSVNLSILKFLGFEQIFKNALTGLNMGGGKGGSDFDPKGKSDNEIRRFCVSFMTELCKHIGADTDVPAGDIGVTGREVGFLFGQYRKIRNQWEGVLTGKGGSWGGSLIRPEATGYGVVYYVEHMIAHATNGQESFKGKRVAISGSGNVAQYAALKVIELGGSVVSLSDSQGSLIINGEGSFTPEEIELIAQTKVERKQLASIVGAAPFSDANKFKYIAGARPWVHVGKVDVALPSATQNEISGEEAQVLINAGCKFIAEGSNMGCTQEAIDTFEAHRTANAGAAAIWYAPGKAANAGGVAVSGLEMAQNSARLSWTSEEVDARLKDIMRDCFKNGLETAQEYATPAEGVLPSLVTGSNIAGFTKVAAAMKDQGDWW
# Experiments:
# [1] = molecular target: T1, AnGDH (NADP-glutamate dehydrogenase from Aspergillus niger, recombinant); assay: time-dependent inactivation of forward activity, kapp versus concentration; assay type: biochemical; conditions: covalent, mixed disulfide at Cys141; incubation at 37°C; residual activity in standard forward assay pH 8.0
# [2] = molecular target: T1, AnGDH (NADP-glutamate dehydrogenase from Aspergillus niger, recombinant); assay: residual forward activity after […] h incubation; assay type: biochemical; conditions: covalent; saturated cystine (0.47 mM), 1 h, 37°C; standard forward assay pH 8.0
# [3] = tested on: N; assay: purified protein; conditions: forward reaction, Tris-HCl pH 8.0, 2-oxoglutarate and NADPH, room temperature
# [4] = tested on: T2, N[C@@H](CCC(=O)O)C(=O)O; assay: purified protein; assay type: biochemical, Aspergillus niger; conditions: reverse reaction, Tris-HCl pH 9.3, NADP+, room temperature
# T2 construct: full-length cDNA in pET43.1(b) NdeI/HindIII, E. coli BL21(DE3), without a tag, purified
# [5] = tested on: T3, O=C(O)CCC(=O)C(=O)O; assay: purified protein; assay type: biochemical, Aspergillus niger; conditions: forward reaction, sigmoid saturation, Tris-HCl pH 8.0, ammonium chloride and NADPH, room temperature
# T3 construct: full-length cDNA in pET43.1(b) NdeI/HindIII, E. coli BL21(DE3), without a tag, purified
# [6] = substrate: N; assay: purified protein; conditions: forward reaction, Tris-HCl pH 8.0, 2-oxoglutarate and NADPH, room temperature; remark: listed apart in the source
# [7] = substrate: O=C(O)CCC(=O)C(=O)O; assay: purified protein; assay type: biochemical, Aspergillus niger; conditions: forward reaction, sigmoid saturation, Tris-HCl pH 8.0, ammonium chloride and NADPH, room temperature
# [8] = substrate: N[C@@H](CCC(=O)O)C(=O)O; assay: purified protein; assay type: biochemical, Aspergillus niger; conditions: reverse reaction, Tris-HCl pH 9.3, NADP+, room temperature
# [9] = substrate: NC(=O)C1=CN([C@@H]2O[C@H](COP(=O)(O)OP(=O)(O)OC[C@H]3O[C@@H](n4cnc5c(N)ncnc54)[C@H](OP(=O)(O)O)[C@@H]3O)[C@@H](O)[C@H]2O)C=CC1; assay: purified protein; assay type: biochemical, Aspergillus niger; conditions: forward reaction, Tris-HCl pH 8.0, 2-oxoglutarate and ammonium chloride, room temperature
# [10] = substrate: NC(=O)c1ccc[n+]([C@@H]2O[C@H](COP(=O)(O)OP(=O)(O)OC[C@H]3O[C@@H](n4cnc5c(N)ncnc54)[C@H](OP(=O)(O)O)[C@@H]3O)[C@@H](O)[C@H]2O)c1; assay: purified protein; assay type: biochemical, Aspergillus niger; conditions: reverse reaction, Tris-HCl pH 9.3, L-glutamate, room temperature
molecule,measurement,setting,value
OCCSSCCO [2-HED],second order inactivation rate constant,[1],0.937 M⁻¹ s⁻¹
N[C@@H](CSSC[C@H](N)C(=O)O)C(=O)O [Cystine],Residual activity (%) / Forward,[2],8.3±1.9%
"AnGDH (NADP-glutamate dehydrogenase from Aspergillus niger, recombinant) (Aspergillus niger; C141S)",Km,[3],1200 µM
same,Km,[4],28600 µM
same,K0.5,[5],4.00 mM
"AnGDH (NADP-glutamate dehydrogenase from Aspergillus niger, recombinant) (Aspergillus niger; C415S)",Km,[4],36800 µM
same,K0.5,[5],15.50 mM
"AnGDH (NADP-glutamate dehydrogenase from Aspergillus niger, recombinant) (Aspergillus niger) (protein, full-length cDNA in pET43.1(b) NdeI/HindIII, E. coli BL21(DE3), without a tag, purified) MSNLPHEPEFEQAYKELASTLENSTLFQKNPEYRKALAVVSVPERVIQFRVVWEDDAGNVQVNRGFRVQFNSALGPYKGGLRFHPSVNLSILKFLGFEQIFKNALTGLNMGGGKGGSDFDPKGKSDNEIRRFCVSFMTELCKHIGADTDVPAGDIGVTGREVGFLFGQYRKIRNQWEGVLTGKGGSWGGSLIRPEATGYGVVYYVEHMIAHATNGQESFKGKRVAISGSGNVAQYAALKVIELGGSVVSLSDSQGSLIINGEGSFTPEEIELIAQTKVERKQLASIVGAAPFSDANKFKYIAGARPWVHVGKVDVALPSATQNEISGEEAQVLINAGCKFIAEGSNMGCTQEAIDTFEAHRTANAGAAAIWYAPGKAANAGGVAVSGLEMAQNSARLSWTSEEVDARLKDIMRDCFKNGLETAQEYATPAEGVLPSLVTGSNIAGFTKVAAAMKDQGDWW",Km,[6],1100 µM
same,K0.5,[7],5.70 mM
same,Km,[8],30900 µM
same,Km,[9],23 µM
same,Km,[10],28 µM
